Substitutions are numbered along the chain they refer to. Names may count otherwise.
B1: recombinant human cardiac (ventricular) myosin regulatory light chain, wild type (natural protein)
chain: MAPKKAKKRAGGANSNVFSMFEQTQIQEFKEAFTIMDQNRDGFIDKNDLRDTFAALGRVNVKNEEIDEMIKEAPGPINFTVFLTMFGEKLKGADPEETILNAFKVFDPEGKGVLKADYVREMLTTQAERFSKEEVDQMFAAFPPDVTGNLDYKNLVHIITHGEEKD
B2: recombinant human cardiac (ventricular) myosin regulatory light chain, A13T mutant (natural protein)
chain: B1 chain with A13T

Key:
[1] = biological target: pyrene-labelled rabbit skeletal F-actin (rabbit) (UniProt P68135); experiment: other fluorescence titration
[2] = biological target: RLC-depleted porcine cardiac myosin (porcine) (UniProt P79293); experiment: co-sedimentation

Molecule	Kd [1] [nM]	stoichiometry N [1]	Kd [2] [nM]
A13T-RLC-reconstituted porcine cardiac myosin (from UniProt P79293 1-1935; P10916 1-166) (complex)	24.4	0.9	–
WT-RLC-reconstituted porcine cardiac myosin (from UniProt P79293 1-1935; P10916 1-166) (complex)	18.9	0.8	–
B1	–	–	2920
B2	–	–	8140

Source: publication PMC6589164
